Measured values: patent US20080023859A1, “Glycopeptides and Temperature-Responsive Micelles” (Toagosei Co., Ltd., priority 2003, published 2008)

Experiment: Measurement of micelle formation by dynamic light scattering (particle diameter)
Type: physicochemical
Settings: DLS in solution at various temperatures
Protocol: The micelle formation was observed by measuring the particle diameter of glycopeptides using dynamic light scattering (DLS; HK-6600 manufactured by Otsuka Electronics Co., Ltd.).
For the solution of Compound 1, the temperature was varied between a temperature range of 15° C. to 35° C. for 15 minutes, the temperature variation was repeated, and the particle diameters were measured at 15° C. and 35° C..

## NH2-Val-Pro-Gly-Val-Gly-Val-Pro-Gly-Val-Gly-OH (H-VPGVGVPGVG-OH) [reference peptide molecule]
  particle diameter of aggregate (in words): very large particle diameter
